Assay results as given in paper PMC9832913.

Target: human A2A adenosine receptor (A2AAR), residues 1-316, N154Q (human) (UniProt P29274)
Assay: SEC

Chain of UniProt P29274 (P29274 1-316 N154Q): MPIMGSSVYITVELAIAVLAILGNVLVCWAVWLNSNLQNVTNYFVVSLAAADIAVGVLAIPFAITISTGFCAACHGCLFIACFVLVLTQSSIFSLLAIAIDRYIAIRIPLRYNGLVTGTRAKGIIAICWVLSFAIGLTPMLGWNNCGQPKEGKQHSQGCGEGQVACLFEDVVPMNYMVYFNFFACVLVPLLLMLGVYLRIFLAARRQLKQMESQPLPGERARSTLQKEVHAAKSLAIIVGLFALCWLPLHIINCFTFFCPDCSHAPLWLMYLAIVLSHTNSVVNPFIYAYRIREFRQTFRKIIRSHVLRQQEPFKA

mini-Gs, an engineered variant of the Gs protein α-subunit
percent of the receptor in complex: 95%
